Laboratory results taken from the supplement of paper PMC11780869.

System: Bacillus subtilis
Assay: cleaved RNA product abundance (RNA/gDNA barcode ratio) relative to median wild-type variant (ratio to wild type); higher = more accumulation of the downstream cleavage product
Procedure, shortened: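 Truncated aprE or tetM reporter mRNAs with barcoded RNase Y cleavage-site windows, mutagenized from oligos at a 9% error rate, sat in the B. subtilis chromosome. Cells grew in LB at 37°C from OD600 0.0003 to 0.3. Gel-selected cleaved RNA was reverse transcribed and its barcodes sequenced with those from genomic DNA, collapsing by UMI. Cleaved product abundance equals the RNA:gDNA barcode ratio per construct over the median construct with the unmutated site.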

[1] = experiment (reporter, strain, medium): exp 2b: truncated aprE reporter, strain BJT200, cleavage site: cggR-gapA (positions -7 to +36 mutated)
[2] = experiment (reporter, strain, medium): exp 4a: truncated aprE reporter, strain BJT201 with 2% xylose (RNase J1 expressed), cleavage site: cggR-gapA (positions -7 to +36 mutated)
[3] = experiment (reporter, strain, medium): exp 6: tetM reporter, strain 168, cleavage site: cggR-gapA (positions -7 to +36 mutated)
[4] = experiment (reporter, strain, medium): exp 8a: truncated aprE reporter, strain BJT201 with 2% xylose (RNase J1 expressed), cleavage site: glnRA (positions -5 to +31 mutated)

Sequence	cleaved RNA product abundance [1]	cleaved RNA product abundance [2]	cleaved RNA product abundance [4]	further results
ACAGACGAAGGAGCCGCAAATAACTTATTAAGGGATGAATAATCCCTCAATATAAATATCTCTCACTTATTTAAA	0.465	0.465	–	cleaved RNA product abundance [3]: 0.719
ACAGACGAAGGAGCCGCAAAGAAGTTATTAATGGATGAATAATCCCTCAATATAACTATCTCTCACTTATTTAAA	–	0.072	–	–
CGACATGTCCCGCTTCTTTCATTAATCCGTTCGCAACTGTTTTGCTATATACATTTACGTTTTAAGAGGAGGAAT	–	–	0.342	–
ACAGACGAAGGAGCCGCAAAGAAGTTATTAACGGATGAATTATCCCTCAATATAAATATCTCTCACTTATTTAAA	0.12	0.179	–	–
CGACATGTCCCGCTTCTTTCATTAATCCGTTAGCAACTGTTTTGCTATATACAATTACCTTTTAAGAGGAGGAAT	–	–	0.983	–
CGACATGTCCCGCTTCTTTCATTAATCCGTTAGCAACTGTTTCGCTATATACATGTACCTTTTAAGAGGAGGAAT	–	–	0.361	–
CGACATGTCCCGCTTCTTTCATTAATCCGGTAGCAACTGTTATGCTATATACATTTACCTTTTAAGAGGAGGAAT	–	–	1.02	–
ACAGACGAAGGAGCCGCAAAGAAGTTATAAAGGAATGAATAATCCCTCAATATAAATATCTCTCACTTATTTAAA	0.0926	0.124	–	–
CGACATGTCCCGCTTCTTTCATTAGTCAGTTAGCAACTGTTTTGCTATATACATTTACCTTTTAAGAGGAGGAAT	–	–	0.249	–
ACAGACGAAGGAGCCGCAAAGAAGTTATTAAGGGATGAGTAATCCCTCATTATAAATATCTCTCACTTATTTAAA	–	0.185	–	–
ACAGACGAAGGAGCCGCAAAGAAGTGATTAAGGGATGAATAATCCCTTAATATAAATATCTCTCACTTATTTAAA	–	0.74	–	–
ACAGACGAAGGAGCCGCAAAGAAGTTATTAAGGGATGAATAATCCCTCAATATATATATTTCTCACTTATTTAAA	–	0.817	–	–
CGACATGTCCCGCTTCTTTCATTAATCCATTAGCAACTATTTTGCTATATACATTTACCTTTTAAGAGGAGGAAT	–	–	0.423	–
CGACATGTCCCGCTTCTTTCATTAATCCGTTTGCAACTGTTTTGCTATATACATTTAACTTTTAAGAGGAGGAAT	–	–	0.827	–
CGACATGTCCCGCTTCTTTCATTAATCCGTTATCAACTGTTTTTCTATATACATTTACCTTTTAAGAGGAGGAAT	–	–	0.393	–
CGACATGTCCCGCTTCTTTCATTAATCCGTTAGCAACCCTTTTGCTATATACATTTACCTTTTAAGAGGAGGAAT	–	–	0.451	–
ACAGACGAAGGAGCCGCAAATAAGTTATTAAGGGATGAATATTCCCTCAATATAAATATCTCTCACTTATTTAAA	0.769	1.07	–	–
ACAGACGAAGGAGCCGCAAAGAAGTTATTAAGGGATGGATAATCCGTCAATATAAATATCTCTCACTTATTTAAA	–	0.149	–	–
ACAGACGAAGGAGCCGCAAAGAAGTTATTAAGGGATTAATAATCCCTCAAAATAAATATCTCTCACTTATTTAAA	0.334	0.419	–	–
CGACATGTCCCGCTTCTTTCATTAATCCGTTAGCAACTGTTTAGCTATATAAATTTACCTTTTAAGAGGAGGAAT	–	–	0.426	–

Sequence	cleaved RNA product abundance [1]	cleaved RNA product abundance [2]	cleaved RNA product abundance [4]	further results
ACAGACGAAGGAGCCGCAAAGAAGTTATTAGGGGAAGAATAATCCCTCAATATAAATATCTCTCACTTATTTAAA	0.278	–	–	–
CGACATGTCCCGCTTCTTTCATTAATACGTTAGCAATTGTTTTGCTATATACATTTACCTTTTAAGAGGAGGAAT	–	–	0.823	–
ACAGACGAAGGAGCCGCAAAGAAGTTATTAAGGGATGAATATTCCCTCAATATAAATCTCTCTCACTTATTTAAA	–	0.471	–	–
ACAGACGAAGGAGCCGCAAAGTAGTTATTAAGGGATGAATAATCCCTCAATATATATATCTCTCACTTATTTAAA	–	0.884	–	–
ACAGACGAAGGAGCCGCAATGAAGTTATTAAGGGATGAATAATCCCTCAATATAAATATCTCTCACTTATTTAAA	1.1	1.12	–	cleaved RNA product abundance [3]: 0.968
CGACATGTCCCGCTTCTTTCATTAATCCGTTAGCAACTGTTTTGCTCTATACATATACCTTTTAAGAGGAGGAAT	–	–	0.176	–
CGACATGTCCCGCTTCTTTCATTAATCCGTTAGCAAATGTTTTGCTATATACTTTTACCTTTTAAGAGGAGGAAT	–	–	1.13	–
ACAGACGAAGGAGCCGCAAAGAAGTTATTAAGGGATTAATAATCCGTCAATATAAATATCTCTCACTTATTTAAA	–	0.165	–	–
ACAGACGAAGGAGCCGCAAAAAAGTTGTTAAGGGATGAATAATCCCTCAATATAAATATCTCTCACTTATTTAAA	0.388	0.355	–	–
ACAGACGAAGGAGCCGCAAAGCAGTTATTAAGGGATGAATAACCCCTCAATATAAATATCTCTCACTTATTTAAA	–	0.275	–	–
CGACATGTCCCGCTTCTTTCATTAATCCTTTAGCAACTGTTTCGCTATATACATTTACCTTTTAAGAGGAGGAAT	–	–	0.282	–
CGACATGTCCCGCTTCTTTCATTAATCCGTTAGCAACAGTTTTGCTATATACATTTACCATTTAAGAGGAGGAAT	–	–	0.522	–
ACAGACGAAGGAGCCGCAAAGAAGTTATTAAGGGATGAATAATCCATCAATATAAATAACTCTCACTTATTTAAA	–	0.185	–	–
ACAGACGAAGGAGCCGCAAAGAAGTTCATAAGGGATGAATAATCCCTCAATATAAATATCTCTCACTTATTTAAA	0.162	–	–	–
CGACATGTCCCGCTTCTTTCATTAATCCGTTAGCAACTGTTTTGCTACATACACTTACCTTTTAAGAGGAGGAAT	–	–	0.213	–
ACAGACGAAGGAGCCGCAAAGAAGTTATTAACGGATGTATAATCCCTCAATATAAATATCTCTCACTTATTTAAA	0.124	0.147	–	–
ACAGACGAAGGAGCCGCAAAGAACTTATTTAGGGATGAATAATCCCTCAATATAAATATCTCTCACTTATTTAAA	0.442	0.321	–	–
ACAGACGAAGGAGCCGCAAAGAATTTATTAAGGGATGAATAATCCCCCAATATAAATATCTCTCACTTATTTAAA	0.189	0.202	–	–
ACAGACGAAGGAGCCGCAAAGAAGTTGTTAAGTGATGAATAATCCCTCAATATAAATATCTCTCACTTATTTAAA	–	0.0952	–	–
ACAGACGAAGGAGCCGCAAAGAAGTTATTAAGGAATGAATTATCCCTCAATATAAATATCTCTCACTTATTTAAA	–	0.0807	–	–

Sequence	cleaved RNA product abundance [1]	cleaved RNA product abundance [2]	cleaved RNA product abundance [4]	further results
ACAGACGAAGGAGCCGCAAAGAAGTTATCTAGGGATGAATAATCCCTCAATATAAATATCTCTCACTTATTTAAA	–	0.316	–	–
CGACATGTCCCGCTTCTTTCATTAATCCGTTAACAACTGTTTTGCTATATACATTTACCTTTTAAGAGGAGGAAT	–	–	0.217	–
ACAGACGAAGGAGCCGCTAAGAAGCTATTAAGGGATGAATAATCCCTCAATATAAATATCTCTCACTTATTTAAA	–	0.52	–	–
ACAGACGAAGGAGCCGCAAAGAAGTTATGAAGTGATGAATAATCCCTCAATATAAATATCTCTCACTTATTTAAA	0.0796	0.0812	–	–
ACAGACGAAGGAGCCGCAAATAAGTTATTAAGGGATGAATAATCCCTCAACATAAATATCTCTCACTTATTTAAA	–	0.401	–	–
CGACATGTCCCGCTTCTTTCATTAATCCGTAAGCAACTGTTTTGGTATATACATTTACCTTTTAAGAGGAGGAAT	–	–	0.312	–
ACAGACGAAGGAGCCGCAAAGAAGTTATTAAGAGATGAATAATCCCTCAATATAAATATCTCTCACTATTTAAAG	–	0.151	–	–
ACAGACGAAGGAGCCGCAAAGAAGTTATTAACGGACGAATAATCCCTCAATATAAATATCTCTCACTTATTTAAA	0.0519	0.0823	–	–
ACAGACGAAGGAGCCGCAAAGAAGTTATTAAGGGATGAATAATCCCTACATATAAATATCTCTCACTTATTTAAA	–	0.203	–	–
CGACATGTCCCGCTTCTTTCATTAATCCGATAACAACTGTTTTGCTATATACATTTACCTTTTAAGAGGAGGAAT	–	–	0.201	–
CGACATGTCCCGCTTCTTTCATTAACCCGTTAGCAACTGTTTTGCTATATACCTATACCTTTTAAGAGGAGGAAT	–	–	0.789	–
ACAGACGAAGGAGCCGCGAAGAAGTTATTAAGGGATGAATAATCCGTCAATATAAATATCTCTCACTTATTTAAA	0.145	–	–	–
CGACATGTCCCGCTTCTTTCATTAATCCGTTAGCAACTGTTTTGCTAAATACATTTAACTTTTAAGAGGAGGAAT	–	–	0.445	–
ACAGACGAAGGAGCCGCAATGAAATTATTAAGGGATTAATAATCCCTCAATATAAATATCTCTCACTTATTTAAA	–	0.695	–	–
CGACATGTCCCGCTTCTTTCATTAATCCGTTAGCAACTGTTTAGTTATATACATTTACCTTTTAAGAGGAGGAAT	–	–	0.327	–
CGACATGTCCCGCTTCTTTCATTAATCAGTTAGCAACTGTTTAGCTATATACATTTACCTTTTAAGAGGAGGAAT	–	–	0.775	–
ACAGACGAAGGAGCCGCAAAGTAGTTATTAAGGGATGAATAATCCCACAATATAAATATCTCTCACTTATTTAAA	0.199	0.223	–	–
ACAGACGAAGGAGCCGCAAAGAAATTATTAAGGGATAAATAATCCCTCAATATAAATATCTCTCACTTATTTAAA	0.818	0.761	–	cleaved RNA product abundance [3]: 1.1
ACAGACGAAGGAGCCGCAAAGATGTTATTAAGGGGTGAATAATCCCTCAATATAAATATCTCTCACTTATTTAAA	0.656	–	–	–
ACAGACGAAGGAGCCGCAAAGAAGTTATTAAAGGATGAATAATCCCTCAATATAAATCTCTCTCACTTATTTAAA	–	0.208	–	–
